From the MegaScale stability set (Tsuboyama et al. 2023)

B1: HHH_rd2_0155 (parent)
chain: PPDDERKKAEKAARSGNEEKAREILERLGYSEDEARELAKRLR

Variants of: B1
Assay: folding stability dG (cDNA display proteolysis); higher = more stable
Details: PBS, room temperature

Variant	folding stability dG [kJ/mol]
PPDDERKKAEKAARSGHEEKAREILERLGYSEDEARELAKRLR	7.42
PPDDERKKAEKAARSGFEEKAREILERLGYSEDEARELAKRLR	7.95
PPDDERKKAEKAARSGKEEKAREILERLGYSEDEARELAKRLR	5.93
PPDDERKKAEKAARSGEEEKAREILERLGYSEDEARELAKRLR	7.15
PPDDERKKAEKAARSGMEEKAREILERLGYSEDEARELAKRLR	6.72
PPDDERKKAEKAARSGLEEKAREILERLGYSEDEARELAKRLR	6.92
PPDDERKKAEKAARSGPEEKAREILERLGYSEDEARELAKRLR	4.03
PPDDERKKAEKAARSGGEEKAREILERLGYSEDEARELAKRLR	4.51
PPDDERKKAEKAARSGAEEKAREILERLGYSEDEARELAKRLR	5.84
PPDDERKKAEKAARSGDEEKAREILERLGYSEDEARELAKRLR	10.1
PPDDERKKAEKAARSGIEEKAREILERLGYSEDEARELAKRLR	4.74
PPDDERKKAEKAANSGNEEKAREILERLGYSEDEARELAKRLR	5.44
PPDDERKKAEKAATSGNEEKAREILERLGYSEDEARELAKRLR	5.9
PPDDERKKAEKAASSGNEEKAREILERLGYSEDEARELAKRLR	6.01
PPDDERKKAEKAAVSGNEEKAREILERLGYSEDEARELAKRLR	7.31
PPDDERKKAEKAAQSGNEEKAREILERLGYSEDEARELAKRLR	7.89
PPDDERKKAEKAAKSGNEEKAREILERLGYSEDEARELAKRLR	8.69
PPDDERKKAEKAAMSGNEEKAREILERLGYSEDEARELAKRLR	8.18
PPDDERKKAEKAALSGNEEKAREILERLGYSEDEARELAKRLR	7.49
PPDDERKKAEKAAWSGNEEKAREILERLGYSEDEARELAKRLR	7.42

Variant	folding stability dG [kJ/mol]
PPDDERKKAEKAAPSGNEEKAREILERLGYSEDEARELAKRLR	3.77
PPDDERKKAEKAAYSGNEEKAREILERLGYSEDEARELAKRLR	7.22
PPDDERKKAEKAARSSNEEKAREILERLGYSEDEARELAKRLR	5.12
PPDDERKKAEKAARSENEEKAREILERLGYSEDEARELAKRLR	4.04
PPDDERKKAEKAARSRNEEKAREILERLGYSEDEARELAKRLR	4.65
PPDDERKKAEKAARSINEEKAREILERLGYSEDEARELAKRLR	5.01
PPDDERKKAEKAARSLNEEKAREILERLGYSEDEARELAKRLR	6.43
PPDDERKKAEKAARSFNEEKAREILERLGYSEDEARELAKRLR	6.39
PPDDERKKAEKAARSQNEEKAREILERLGYSEDEARELAKRLR	4.37
PPDDERKKAEKAARSPNEEKAREILERLGYSEDEARELAKRLR	3.45
PPDDERKKAEKAARSANEEKAREILERLGYSEDEARELAKRLR	4.82
PPDDERKKAEKAARSKNEEKAREILERLGYSEDEARELAKRLR	5.11
PPDDERKKAEKAARSTNEEKAREILERLGYSEDEARELAKRLR	3.4
PPDDERKKAEKAARSDNEEKAREILERLGYSEDEARELAKRLR	5.19
PPDDERKKAEKAARSVNEEKAREILERLGYSEDEARELAKRLR	4.18
PPDDERKKAEKAARSMNEEKAREILERLGYSEDEARELAKRLR	5.56
PPDDERKKAEKAARSYNEEKAREILERLGYSEDEARELAKRLR	6.14
PPDDERKKAEKAARSWNEEKAREILERLGYSEDEARELAKRLR	5.95
PPDDERKKAEKAARSNNEEKAREILERLGYSEDEARELAKRLR	5.14
PPDDERKKAEKAARSHNEEKAREILERLGYSEDEARELAKRLR	5.53

Variant	folding stability dG [kJ/mol]
PPDDERKKAEKAARAGNEEKAREILERLGYSEDEARELAKRLR	9.44
PPDDERKKAEKAARWGNEEKAREILERLGYSEDEARELAKRLR	7.67
PPDDERKKAEKAARFGNEEKAREILERLGYSEDEARELAKRLR	6.89
PPDDERKKAEKAARRGNEEKAREILERLGYSEDEARELAKRLR	8.57
PPDDERKKAEKAARYGNEEKAREILERLGYSEDEARELAKRLR	6.47
PPDDERKKAEKAARMGNEEKAREILERLGYSEDEARELAKRLR	9.46
PPDDERKKAEKAARGGNEEKAREILERLGYSEDEARELAKRLR	7.77
PPDDERKKAEKAARKGNEEKAREILERLGYSEDEARELAKRLR	6.67
PPDDERKKAEKAARNGNEEKAREILERLGYSEDEARELAKRLR	8.76
PPDDERKKAEKAARLGNEEKAREILERLGYSEDEARELAKRLR	8.17
PPDDERKKAEKAARTGNEEKAREILERLGYSEDEARELAKRLR	7.54
PPDDERKKAEKAARCGNEEKAREILERLGYSEDEARELAKRLR	9.01
PPDDERKKAEKAAREGNEEKAREILERLGYSEDEARELAKRLR	10.6
PPDDERKKAEKAARHGNEEKAREILERLGYSEDEARELAKRLR	7.64
PPDDERKKAEKAARQGNEEKAREILERLGYSEDEARELAKRLR	9.24
PPDDERKKAEKAARIGNEEKAREILERLGYSEDEARELAKRLR	6.57
PPDDERKKAEKAARVGNEEKAREILERLGYSEDEARELAKRLR	6.47
PPDDERKKAEKAARDGNEEKAREILERLGYSEDEARELAKRLR	9.31
PPDDERKKAEKAARPGNEEKAREILERLGYSEDEARELAKRLR	3.6
